The text below walks through data of publication doi:10.1101/2025.06.22.660944, “Structures of MmpL complexes reveal the assembly and mechanism of this family of transporters” (bioRxiv, 2025).

For assay [1], the target named is MmpL5 transporter (M. smegmatis, MSMEG_1382) (M. smegmatis) (UniProt A0QS80). Kind of assay: cryo-EM structure; particle class 2: tripartite AcpM-MmpL5-MmpS5 trimeric complex, 2.81 Å; same LMNG-solubilized crude membrane sample, Build and Retrieve processing.
Assay [2] shares this target. Kind of assay: cryo-EM structure; particle class 3: dipartite AcpM-MmpL5 trimeric complex, 3.37 Å; same LMNG-solubilized crude membrane sample, Build and Retrieve processing.
The target in assay [3] is T1, MmpL5 transporter (M. smegmatis, MSMEG_1382) (M. smegmatis, UniProt A0QS80 1-967).
T1 construct: MmpL5, M. smegmatis, gene MSMEG_1382; 12 transmembrane helices and periplasmic subdomains PD1-PD3 (PD3 residues 499-684); Seen as a monomer (one chain per AcpM-MmpL5 unit in 2D arrays) and as a homotrimer (in AcpM-MmpL5-MmpS5 and trimeric AcpM-MmpL5) in the same sample; copies therefore left empty; also called mycobacterial membrane protein large 5; source: M. smegmatis MC2-155, co-expressed with …
T1 sequence (looked up): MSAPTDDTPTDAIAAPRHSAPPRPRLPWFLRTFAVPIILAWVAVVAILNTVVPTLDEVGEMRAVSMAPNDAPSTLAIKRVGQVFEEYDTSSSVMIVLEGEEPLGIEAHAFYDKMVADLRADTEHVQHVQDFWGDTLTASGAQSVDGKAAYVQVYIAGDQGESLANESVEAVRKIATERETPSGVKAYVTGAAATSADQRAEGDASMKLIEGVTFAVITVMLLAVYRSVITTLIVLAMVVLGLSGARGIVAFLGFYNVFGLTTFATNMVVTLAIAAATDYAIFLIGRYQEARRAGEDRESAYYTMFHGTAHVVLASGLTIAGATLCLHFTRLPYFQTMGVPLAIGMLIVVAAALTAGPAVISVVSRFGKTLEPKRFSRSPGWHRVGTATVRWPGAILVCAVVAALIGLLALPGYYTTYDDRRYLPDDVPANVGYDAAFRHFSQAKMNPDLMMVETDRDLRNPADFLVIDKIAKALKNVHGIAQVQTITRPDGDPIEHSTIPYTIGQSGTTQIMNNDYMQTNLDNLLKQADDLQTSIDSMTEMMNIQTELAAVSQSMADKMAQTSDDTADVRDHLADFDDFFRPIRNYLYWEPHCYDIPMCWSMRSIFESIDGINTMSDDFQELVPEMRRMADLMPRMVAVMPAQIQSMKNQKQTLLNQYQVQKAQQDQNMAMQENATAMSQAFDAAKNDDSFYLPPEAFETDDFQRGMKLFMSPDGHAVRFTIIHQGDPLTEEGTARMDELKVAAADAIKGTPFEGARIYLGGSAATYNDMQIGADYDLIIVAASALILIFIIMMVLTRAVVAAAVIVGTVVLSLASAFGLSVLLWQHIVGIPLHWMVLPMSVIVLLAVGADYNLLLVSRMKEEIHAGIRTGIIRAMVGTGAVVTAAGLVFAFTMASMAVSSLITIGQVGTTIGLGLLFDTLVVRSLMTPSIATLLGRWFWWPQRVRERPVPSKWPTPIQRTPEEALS
Description: cryo-EM structure; particle class 2: tripartite AcpM-MmpL5-MmpS5 trimeric complex, 2.81 Å; same LMNG-solubilized crude membrane sample, Build and Retrieve processing. The note with it: partners not purified.

The target in assay [4] is T1, MmpL5 transporter (M. smegmatis, …). Kind of assay: cryo-EM structure; particle class 1: AcpM-MmpL5 monomeric units in 2D arrays, 3.35 Å; LMNG-solubilized crude M. smegmatis membranes enriched by sucrose cushion, Build and Retrieve processing. To be noted: partners not purified.

In general, stoichiometry N refers to a count of units in the complex or per binding partner. As to “MmpL5 transporter (M. smegmatis, MSMEG_1382) (from UniProt A0QS80 1-967) (natural protein)”, the stoichiometry N in assay [1] and in assay [2] was 3 in each case.
In turn, “MmpS5 adaptor (M. smegmatis, MSMEG_1381) (natural protein)” yielded a stoichiometry N (MmpS5 per MmpL5 (3:3)) in assay [1] of 1.

B1: meromycolate extension acyl carrier protein M (AcpM) (natural protein, UniProt A0R0B3 1-99, looked up)
chain: MAATQEEIIAGLAEIIEEVTGIEPSEVTPEKSFVDDLDIDSLSMVEIAVQTEDKYGVKIPDEDLAGLRTVGDVVAYIQKLEEENPEAAAALREKFAADQ
notes: AcpM, meromycolate extension acyl carrier protein M, of the M. smegmatis host; identified from the cryo-EM map (manual building, DeepTracer) and confirmed by proteomics; Not overexpressed; came along with MmpL5 from the host cells; source: endogenous, M. smegmatis MC2-155; found in the detergent-solubilized crude membranes enriched by sucrose cushion centrifugation
For the molecule B1, the “stoichiometry N” value in assay [3] was 1 AcpM per MmpL5 (3:3); in assay [4] it was 1 AcpM per MmpL5 (1:1).
